From paper PMC5291263

How the values were obtained:
[1] = molecular target: T1, GB1-SRSF1 RRM2 WT (pseudo-RRM) (human, UniProt Q07955 107-203); test: NMR
GB1-SRSF1 RRM2 R142A = GB1-SRSF1 RRM2 R142A (human, UniProt Q07955 107-203, R142A); test: ITC
[2] = molecular target: T1, GB1-SRSF1 RRM2 WT (pseudo-RRM); test: ITC

T1 sequence (Q07955 107-203): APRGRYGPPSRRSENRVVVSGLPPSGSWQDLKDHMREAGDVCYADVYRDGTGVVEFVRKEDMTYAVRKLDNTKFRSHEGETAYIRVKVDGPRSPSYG
GB1-SRSF1 RRM2 R142A, sequence (Q07955 107-203 R142A): as the sequence (Q07955 107-203) above, with R36A counted along it

Binder | binding result [1] | Kd (GB1-SRSF1 RRM2 R142A) | Kd [2]
UGAAGGAC (ssRNA) [5'-UGAAGGAC-3' RNA] | binds | – | –
AGGAC (ssRNA) [5'-AGGAC-3' RNA] | – | 7 µM | 1 µM
